This data set is described as follows: yeast display, Sf9 membrane polyspecificity reagent, FACS + sequencing; frameworks hold sequencing errors. The method, boiled down:
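After 36–48 hours of galactose induction, yeast (Saccharomyces cerevisiae BJ5465) displaying a synthetic nanobody library were stained at 4 °C for 1 hour with 10% biotinylated, detergent-solubilized Sf9 membrane reagent. Streptavidin microbeads enriched the stained cells before FACS sorting into low and high (top ~1%) gates on anti-HA and streptavidin fluorescence. Each clone's polyreactivity label reflects its gate of origin.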
In the case of “QVQLVESGGGLVQAGGSLRLSCAASGSTFFTYAMGWYRQAPGKERELVAAISWSGGTTYYSDSVKWRFTISRDYAKNTDYLQMNSLKPEDTAGYYCASDRDGILKANDYWGQGTQVTVSS”, the “polyreactivity (PSR sort gate)” value is “low polyreactivity”.

With “QVQLVESGGGLVQAGGSLRLSCAASGSTFFYNVMGWYRQAPGKERELVAAITSSGGGTYYADSVKGRFTISRDNAKNTVYLQMNSLKPEDTAVYYCAKPVWLRDYRHGGRFGYWGQGTQVTVSS”, the “polyreactivity (PSR sort gate)” value is “low polyreactivity”.

“QVQLVESGGGLVQAGGSLRLSCAASGSTFFYYAMGWYRQAPGKERAFVAAISSSVGTTYYADSVKGRFTISRDNAKNTVYLQMNRLKPVDTAVYYCAKASSATRYVQLRQDYDYWGQGTQVTVSS”: the “polyreactivity (PSR sort gate)” value is on record as “low polyreactivity”.

For “QVQLVESGGGLVQAGGSLRLSCAASGSTFFYYTMGWYIQAPGKERELVADITRGGGTTYYADSVKGRFTISRDNAKNTVYLQMNSLKPEDTAVYYCNAPYPNARYWTGWGYYYWGQGTQVTVSS”, the “polyreactivity (PSR sort gate)” value is “high polyreactivity”.

Regarding “QVQLVESGGGLVQAGGSLRLSCAASGSTFGANAMGWYRQAPGKERELVATISSGGRTYYADSVKGRFTISRDNAKNTVYLQMNSLKPEDTAVYYCNAGADYTYVYISVYVLYDYWGQGTQVTVSS”, the “polyreactivity (PSR sort gate)” value is listed as “low polyreactivity”.

“QVQLVESGGGLVQAGGSLRLSCAASGSTFGANAMGWYRQAPGKERELVAVITWNDGSTYYADSVKGRFTISRDNAKNTVYLQMNSLKPEDTAVYYCAAEYADSWSAFDWNYYYWVQGTQVTVSS”: the “polyreactivity (PSR sort gate)” value is recorded as “high polyreactivity”.

For the sequence “QVQLVESGGGLVQAGGSLRLSCAASGSTFGAYAMGWSRKAPGKERELVAAISRRGGSTYYADSVKGRFTISRDNAKNTVYLQMNSLKPEDTAVYYCNAVGTRVDGEHYYWGQGTQVTVSS”, the “polyreactivity (PSR sort gate)” value is “high polyreactivity”.

On to “QVQLVESGGGLVQAGGSLRLSCAASGSTFGAYAMGWSRQAPGKERELVAAISKRGGSTYYADSVKGRFTISRDNAKNTVYLQMNSLKPEDTAVYYCATDHFSPTYGYWGQGTQVTVSS”, for which the “polyreactivity (PSR sort gate)” value was “low polyreactivity”.

“QVQLVESGGGLVQAGGSLRLSCAASGSTFGAYAMGWYRQAPGKEREFVAAISGGGDGTYADSVKGRFTISRDNAKNTVYLQMNSLKPEDTAVYYCAAEDVPYDREDYWGQGTQVTVSS”: the “polyreactivity (PSR sort gate)” value is “low polyreactivity”.

Take “QVQLVESGGGLVQAGGSLRLSCAASGSTFGDYSMGWYRQAPGKERELVAAISRGGSTYYADSVKGRFTISRDNAKNTVYLQMNSLKPEDTAVYYCNNDVGYSASPDGSTFDYWGQGTQVTVSS”: the “polyreactivity (PSR sort gate)” value is given as “low polyreactivity”.

Regarding “QVQLVESGGGLVQAGGSLRLSCAASGSTFGENAMGWYRQAPGKERELVAGINSTGGSTYYADSVKGRFTISRDNAKNTVSLQMNSLKPEDTAVYYCAAGDWYSGNTSHFYYWGQGTQVTVSS”, the “polyreactivity (PSR sort gate)” value is recorded as “low polyreactivity”.

Take “QVQLVESGGGLVQAGGSLRLSCAASGSTFGEYAMGWYRQAPGKERELVAAITSSGGSTYYADSVKGRFTISRDNAKNTVYLQMNSLKPEDTAVYYCAADWDYPYDEAVSKDIDYDYWGQGTQVTVSS”: the “polyreactivity (PSR sort gate)” value is recorded as “low polyreactivity”.

Regarding “QVQLVESGGGLVQAGGSLRLSCAASGSTFGEYAMGWYRQAPGKERELVAGITSGGSTNYADSVKGRFTISRDNAKNTVYLQMNSLKPEDTAVYYCNARFYGSVDYWGLGTQVTVSS”, the “polyreactivity (PSR sort gate)” value was “low polyreactivity”.

On to “QVQLVESGGGLVQAGGSLRLSCAASGSTFGFNAMGWYRQAPGKEREFVAAITRSGGSTYYADSVKGRFTISRDNAKNTVYLQMNSLKPEDTAVYYCAKRRYFYSQWVRAFDYWGQGTQVTVSS”, for which the “polyreactivity (PSR sort gate)” value is on record as “high polyreactivity”.

With “QVQLVESGGGLVQAGGSLRLSCAASGSTFGFYAMGWYRQAPGKERELVAAISGRGGSTYYADSVKGRFTISRDNAKNTVYLQMNSLKPEDTAVYYCAAKYYGEMYYWGQGTQVTVSS”, the “polyreactivity (PSR sort gate)” value is recorded as “low polyreactivity”.

For the sequence “QVQLVESGGGLVQAGGSLRLSCAASGSTFGFYAMGWYRQAPGKERELVAAITSGDITYADSVKGRFTISRDNAKNTVYLQMNSLKPEDTAVYYCAASGPYSYDWGQGTQVTVSS”, the “polyreactivity (PSR sort gate)” value is reported as “low polyreactivity”.

As to “QVQLVESGGGLVQAGGSLRLSCAASGSTFGGNAMGWYRQAPGKERELVAAISSGGTTNYADSVKGRFTISRDNAKNTVDLQMNSLKPEDTAVYYCNKPHRWPQAGYGYWGQGTQVTVSS”, the “polyreactivity (PSR sort gate)” value is “high polyreactivity”.

“QVQLVESGGGLVQAGGSLRLSCAASGSTFGGNDMGWYRQAPGKERELVAAISSGTSTNYADSVKGRFTISRDNAKNTVYLQMNSLKPEDTAVYYCNAGFWYRRTYDYWGQGTQVTVSS”: the “polyreactivity (PSR sort gate)” value is “low polyreactivity”.

Take “QVQLVESGGGLVQAGGSLRLSCAASGSTFGGNGMGWYRQAPGKEREFVATITWRSGSTYYADSVKGRFTISRDKAKNTVYLKMNILKPEDSAVYYCAKYTSSRRNTWYYYWGQGTEVTVSS”: the “polyreactivity (PSR sort gate)” value is “high polyreactivity”.

Turning to “QVQLVESGGGLVQAGGSLRLSCAASGSTFGGSAMGWYRQAPGKERELVAAISKSGGSTYYADSVKGRFTISRDNAKNTVYLQMNSLKPEDTAVYYCNAPYKRSPYNYWGQGTQVTVSS”, the “polyreactivity (PSR sort gate)” value is reported as “high polyreactivity”.

For “QVQLVESGGGLVQAGGSLRLSCAASGSTFGGYAMGWYIQAPGKERELVADISRRVGSTYYADSVKGRFTISRDNAKNTVYLQMNSLKPEDTAVYYCNVPRIVIISGPSSPFRYYWGQGTQVTVSS”, the “polyreactivity (PSR sort gate)” value is given as “high polyreactivity”.

As for “QVQLVESGGGLVQAGGSLRLSCAASGSTFGGYAMGWYRQAPAKERELVAAISTSGGNTYYADSVKGRFTISRDNAKNTVYLQMNRLKPEDTAVYYCARDRVSWGGQDSWGQGTQVSVSS”, the “polyreactivity (PSR sort gate)” value is listed as “high polyreactivity”.

As for “QVQLVESGGGLVQAGGSLRLSCAASGSTFGGYAMGWYRQAPGKERELVAAISGSGVRTYYADSEKGRFTISRDNAKNTVYLQMNSLQPEDTAVYYCAKRVRYPGDRYYYWGQGTQVTVSS”, the “polyreactivity (PSR sort gate)” value is “high polyreactivity”.

Regarding “QVQLVESGGGLVQAGGSLRLSCAASGSTFGGYAMGWYRQAPGKERELVAGITISVGSTYYADSVKGRFTISRDNAKNTVYLQMNSLKPEDTAVYYCAADGLSWYNYWGQGTQVTVSS”, the “polyreactivity (PSR sort gate)” value is “high polyreactivity”.

Consider “QVQLVESGGGLVQAGGSLRLSCAASGSTFGGYVMGWYRQAPGKERELVATITQGDGSTYYADSVKGRFTISRDNAKNTVYLQMNSLKPEDTAVYYCAAYGWYDLYYWEYDYWGQGTQVTVSS”, for which the “polyreactivity (PSR sort gate)” value is listed as “high polyreactivity”.

Turning to “QVQLVESGGGLVQAGGSLRLSCAASGSTFGHYAMGWYRQAPGKERELVAAISWSGGSTSYADSVKGRFTISRDNAKNTVYLQMNSLKPEDTAVYYCNKRQEWFHFPYTRVYYWGQGTQLTVSS”, the “polyreactivity (PSR sort gate)” value is “low polyreactivity”.

For the sequence “QVQLVESGGGLVQAGGSLRLSCAASGSTFGHYAMGWYRQAPGKERELVAAITWSGGSTYYADSVKGRFTISRDNAKNTVYLQMNSLKPEDTAVYYCNAVTRRSAQVGHDYWGQGTQVTVSS”, the “polyreactivity (PSR sort gate)” value is on record as “high polyreactivity”.

For “QVQLVESGGGLVQAGGSLRLSCAASGSTFGHYAMGWYRQAPGKERELVAGITDTDNHELRRLCEGRFTISRDNAKNTVYLQMTSLKPEDTAVYYCNADDTYYPLGGITGYDYWGQGTQVTVSS”, the “polyreactivity (PSR sort gate)” value is given as “low polyreactivity”.

Turning to “QVQLVESGGGLVQAGGSLRLSCAASGSTFGHYAMGWYRQAPGKERELVAGITYTDNHELRRLCEGRFTISRDNAKNTVYLQMNSLKPEDTAVYYCNADDTYYPLGGITGYDYWGQGTQVTVSS”, the “polyreactivity (PSR sort gate)” value is “low polyreactivity”.

As to “QVQLVESGGGLVQAGGSLRLSCAASGSTFGIYAMGWYRPAPGKERELVAAISSGGSTNYADSVKGRFTISRDNAKNTVYLQMNCLKPEDSAVYYCAVESVYEYGGYVDSAYDYWGQGTQVTVSS”, the “polyreactivity (PSR sort gate)” value was “low polyreactivity”.

Consider “QVQLVESGGGLVQAGGSLRLSCAASGSTFGIYVMGWYRQAPGKERELVATISSSGGRTYYADSVKGRFTISRDNAKNTVYLQMNSLKPEDTAVYYCAADGYIDISPGYYYTYDYWGQGTQVTVSS”, for which the “polyreactivity (PSR sort gate)” value is reported as “low polyreactivity”.

Turning to “QVQLVESGGGLVQAGGSLRLSCAASGSTFGKNAMGWYRQAPGKERELVAAITRRGGSTNYADSVKGRFTISRDNAKNTVYLQINSLKPEDTAVYYCAASWGRTSSKPFDYWGQGTQVTVSS”, the “polyreactivity (PSR sort gate)” value is recorded as “high polyreactivity”.

Consider “QVQLVESGGGLVQAGGSLRLSCAASGSTFGLNALGWYRQAPGKERELVAAISTSGGSTYYADSVKGRFTISRDNAKNTVFLQMNSLNPEDTAVYYCAADVVAGYDYSQYYYWGQGTQVTVSS”, for which the “polyreactivity (PSR sort gate)” value is given as “low polyreactivity”.

On to “QVQLVESGGGLVQAGGSLRLSCAASGSTFGLNAMGWYRQAPGKERELVAAISTSGGSTYYADSVKGRFTISRDNAKNTVYLQMNSLKPEDTAVYYCAAEVVAGYDYSQYYYWGQGTQVTVSS”, for which the “polyreactivity (PSR sort gate)” value is given as “low polyreactivity”.

For the sequence “QVQLVESGGGLVQAGGSLRLSCAASGSTFGLYAMGWYRQAPGKERELVADITWSGGSTYYADSVKGRFTISRDNAKNTVYLQMNSLKPEDTAVYYCAARYPWVYYDFDYWGQGTQVTVSS”, the “polyreactivity (PSR sort gate)” value is given as “low polyreactivity”.

Take “QVQLVESGGGLVQAGGSLRLSCAASGSTFGNAMGWYTQAPGKEREWVAAISSRGDRTYYADSVKGRFTISRDNAKNTGYLQMNSLKPEDTAVYYCAKDGYPNKYDYWGQGTQVTVSS”: the “polyreactivity (PSR sort gate)” value is given as “high polyreactivity”.

As to “QVQLVESGGGLVQAGGSLRLSCAASGSTFGNNAMGLYRQAPGKERELVASINWNGGSTYYADSVKGRFTISRDNAKITVYLQMNSLKPEDTAVYYCNARLYFVEGQDYYYWGQGTQVTVSS”, the “polyreactivity (PSR sort gate)” value is reported as “low polyreactivity”.

Consider “QVQLVESGGGLVQAGGSLRLSCAASGSTFGNNAMGWYRQAPGKERELVASISWSSGRTYYADSVKGRFTISRDNAKNTVYLQMNSLKREDTAVYYCAAPLPVDVVWDRSAEVRYDYWGQGTQVTVSS”, for which the “polyreactivity (PSR sort gate)” value is recorded as “low polyreactivity”.

On to “QVQLVESGGGLVQAGGSLRLSCAASGSTFGPNTMGWYRQAPGKERELVAAITTRGGRTYYADSVKGRFTISRDNAKNTVYLQMNSLKPEDTAVYYCAASAPYYGRGGLVGYWGQGTQVTVSS”, for which the “polyreactivity (PSR sort gate)” value is “high polyreactivity”.

Consider “QVQLVESGGGLVQAGGSLRLSCAASGSTFGPYAMGWYRQAPGKERELVATINSSGSTNYADSVKGRFTISRDNAKNTVYLQMNSLKPEDTAVYYCATLHYYYWYDYWGQGTQVTVSS”, for which the “polyreactivity (PSR sort gate)” value was “low polyreactivity”.

The record behind these values is the nanobody polyreactivity screen of Harvey et al. (2022).
